In patent US20080026982A1:

What was measured:
Experiment in all cases: cell-based or functional assay
[1] = target: APOBEC3G mutant D128K, C-terminal myc-tagged (human)
[2] = target: APOBEC3G mutant P129A, C-terminal myc-tagged (human) (UniProt Q9HC16)
[3] = target: APOBEC3G mutant P129D, C-terminal myc-tagged, expressed from pAPO3G-P129D (human) (UniProt Q9HC16)
[4] = target: APOBEC3G mutant P129F, C-terminal myc-tagged (human) (UniProt Q9HC16)

Substance | Inhibition HIV-1 (%) (viral inhibition, HDV-EGFP single-cycle infectivity in the presence of Vif) [1] | Inhibition HIV-1 (%) (viral inhibition, HDV-EGFP single-cycle infectivity in the presence of Vif) [2] | GFP-positive cells (relative to wild type APOBEC3G with pcHelp set to 100%) [3] [%] | Inhibition HIV-1 (%) (viral inhibition, HDV-EGFP single-cycle infectivity in the presence of Vif) [3] | Inhibition HIV-1 (%) (viral inhibition, HDV-EGFP single-cycle infectivity in the presence of Vif) [4] | Inhibition HIV-2 (%) (viral inhibition, HDV-EGFP single-cycle infectivity in the presence of Vif) [1] | Inhibition HIV-2 (%) (viral inhibition, HDV-EGFP single-cycle infectivity in the presence of Vif) [2] | Inhibition HIV-2 (%) (viral inhibition, HDV-EGFP single-cycle infectivity in the presence of Vif) [3] | Inhibition HIV-2 (%) (viral inhibition, HDV-EGFP single-cycle infectivity in the presence of Vif) [4]
HIV-1 Vif (virion infectivity factor), expressed from pC-Help | 83 | 68 | < 10 | 94 | 79 |  |  |  | 
HIV-2 Vif (HIV-2Rod) |  |  | < 10 |  |  | 42 | 77 | 95 | 81
